B1: Caprin-1(330-432) (domain or fragment)
chain: QPQAASPSVPEPHSLTPVAQADPLVRRQRVQDLMAQMQGPYNFIQDSMLDFENQTLDPAIVSAQPMNPTQNMDMPQLVCPPVHSESRLAQPNQVPVQPEATQV
modifications: 15N-labeled

Assays:
[1] = target: T1, G3BP1 NTF2L (nuclear transport factor 2-like domain of Ras-GTPase-activating protein binding protein (human, UniProt Q13283 1-139)); assay: NMR titration
[2] = target: T1, G3BP1 NTF2L (nuclear transport factor …); assay: ITC

T1 sequence (Q13283 1-139): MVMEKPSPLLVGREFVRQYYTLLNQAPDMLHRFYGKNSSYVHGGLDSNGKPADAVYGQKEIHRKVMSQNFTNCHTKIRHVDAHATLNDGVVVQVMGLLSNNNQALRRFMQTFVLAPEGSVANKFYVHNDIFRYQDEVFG

Binder | binding result [1] | Kd [2]
B1 | binds | –
VAQADPLVRRQRVQDLMAQMQGPYNFIQDSMLDFENQTLD [Caprin-1(347-386) peptide] | – | 1300 nM
